This is an account of results in publication PMC2435421.

For this experiment, the target named is H-2D^b on RMA-S cells (mouse (endogenous in RMA-S)). Briefly: flow cytometry on cells. (In flow cytometry, cells or beads pass a laser one at a time.)

“gp33-wt, LCMV wild-type peptide antigen (gp33 residues 33-41)” came in with a half-life of the peptide-MHC complex (Peptide stability) above 1 h.
